Experiments:
[1] = target: bacteriophage 80α portal protein (gp42) in situ in SaPI1 virions (Staphylococcus aureus bacteriophage 80α); assay: cryo-EM structure; focused reconstruction with C12 symmetry of the portal complex in situ in purified full and empty SaPI1 virions (assembled in S. aureus), after signal subtraction of the capsid; 3.2 Å (full) and 3.5 Å (empty)
[2] = target: bacteriophage 80α portal protein (gp42), expressed in E. coli with a C-terminal hexahistidine tag (Staphylococcus aureus bacteriophage 80α); assay: cryo-EM structure; portals expressed in E. coli, in solution (25 mM HEPES pH 7.4, 0.1 M NaCl); 2D classification and C13 reconstruction in RELION-3, 2.4 Å
[3] = target: the molecule itself; assay: cryo-EM structure; icosahedral reconstruction of full and empty capsids of purified SaPI1 virions (assembled in S. aureus); 3.1 Å (full, used to model CP) and 3.2 Å (empty)

bacteriophage 80α portal protein (gp42) in situ in SaPI1 virions (natural protein)
stoichiometry N [1]: 12

bacteriophage 80α portal protein (gp42), expressed in E. coli with a C-terminal hexahistidine tag (natural protein)
stoichiometry N [2]: 13

B1: bacteriophage 80α capsid protein (gp47) in mature SaPI1 capsids (natural protein, Staphylococcus aureus bacteriophage 80α, UniProt A4ZFB3 15-324, looked up)
chain: ASNNVKPQVFNPDNVMMHEKKDGTLMNEFTTPILQEVMENSKIMQLGKYEPMEGTEKKFTFWADKPGAYWVGEGQKIETSKATWVNATMRAFKLGVILPVTKEFLNYTYSQFFEEMKPMIAEAFYKKFDEAGILNQGNNPFGKSIAQSIEKTNKVIKGDFTQDNIIDLEALLEDDELEANAFISKTQNRSLLRKIVDPETKERIYDRNSDSLDGLPVVNLKSSNLKRGELITGDFDKLIYGIPQLIEYKIDETAQLSTVKNEDGTPVNLFEQDMVALRATMHVALHIADDKAFAKLVPADKRTDSVPGEV
notes: capsid protein gp47 of Staphylococcus aureus bacteriophage 80α, cut product: the first 14 residues are removed by the Prp protease; domains printed as N-arm 15-67, E-loop 68-104, P-domain 105-167 and 248-307, A-domain 168-247 and 308-324; residues 16-313 modelled; 240 copies in the icosahedral T=4 capsid; in the real virion five subunits at one vertex are replaced by the portal; also called CP; …
stoichiometry N [3]: 240

Reference: paper doi:10.1101/2023.09.18.557803, “Structure of the portal complex from Staphylococcus aureus pathogenicity island 1 transducing particles in situ and in solution” (bioRxiv, 2023)
